Our source for the duration of individual binding events (at 10 nM Gal4-VP16^649) values is paper PMC11661148.

The target in the test is Gal4-SNAP-VP16 labeled with SNAP-Surface-649 (S. cerevisiae | herpes simplex virus) (UniProt P04386). The experiment in a line: colocalization single-molecule spectroscopy.

As for “Mediator complex with Med7-HA-SNAP labeled with SNAP-Surface-549 (from UniProt Q08278 1-222)”, the duration of individual binding events (at 10 nM Gal4-VP16^649) was determined as 1 s.
